# Experimental data from article PMC1201339.
# T1: Cdc6-1 FL (Methanothermobacter thermautotrophicus, UniProt O27463 1-382)
# T1 sequence: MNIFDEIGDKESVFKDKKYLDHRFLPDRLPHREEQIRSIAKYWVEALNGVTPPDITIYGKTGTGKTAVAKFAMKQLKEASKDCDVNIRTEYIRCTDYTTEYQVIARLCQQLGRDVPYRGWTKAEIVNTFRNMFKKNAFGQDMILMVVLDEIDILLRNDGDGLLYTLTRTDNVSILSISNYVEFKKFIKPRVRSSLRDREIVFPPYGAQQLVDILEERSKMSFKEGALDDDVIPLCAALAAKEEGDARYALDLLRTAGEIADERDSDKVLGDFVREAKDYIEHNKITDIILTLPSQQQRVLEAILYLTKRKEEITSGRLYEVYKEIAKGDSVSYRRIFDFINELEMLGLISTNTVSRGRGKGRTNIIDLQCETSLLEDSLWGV
# T2: Cdc6-2 FL (Methanothermobacter thermautotrophicus, UniProt O27636 1-379)
# T2 sequence: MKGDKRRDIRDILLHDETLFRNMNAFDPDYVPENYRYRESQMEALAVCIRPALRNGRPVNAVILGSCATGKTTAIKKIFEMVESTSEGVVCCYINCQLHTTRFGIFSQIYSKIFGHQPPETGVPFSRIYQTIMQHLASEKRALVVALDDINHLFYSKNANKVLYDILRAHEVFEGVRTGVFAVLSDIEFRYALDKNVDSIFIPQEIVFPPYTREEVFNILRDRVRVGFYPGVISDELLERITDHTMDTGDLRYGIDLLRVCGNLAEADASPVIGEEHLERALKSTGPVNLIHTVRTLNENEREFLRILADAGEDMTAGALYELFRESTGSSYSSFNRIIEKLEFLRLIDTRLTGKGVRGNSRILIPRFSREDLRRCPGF
# T3: Cdc6-2 WH (Methanothermobacter thermautotrophicus, UniProt O27636 292-379)
# T3 sequence: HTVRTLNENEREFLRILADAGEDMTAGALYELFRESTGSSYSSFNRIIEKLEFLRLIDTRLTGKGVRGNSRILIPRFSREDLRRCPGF
# T4: Cdc6-1 WH (Methanothermobacter thermautotrophicus, UniProt O27463 287-382)
# T4 sequence: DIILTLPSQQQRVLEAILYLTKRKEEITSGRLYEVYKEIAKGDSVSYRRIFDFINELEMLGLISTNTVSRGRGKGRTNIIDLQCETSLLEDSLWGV
# Columns and labels:
# Test in all cases: filter binding
# [1] = target: T1, Cdc6-1 FL
# [2] = target: T2, Cdc6-2 FL
# [3] = target: T3, Cdc6-2 WH
# [4] = target: T4, Cdc6-1 WH
Binder,binding result [1],binding result [2],binding result [3],binding result [4]
TACATATGTACATGGGTACATATGTACATGGGTACATATGTACAT (ssDNA) [MR163 45mer ssDNA],no binding,binds,–,–
MR163/MR164 45 bp dsDNA (dsDNA) DNA 1: TACATATGTACATGGGTACATATGTACATGGGTACATATGTACAT DNA 2: ATGTACATATGTACCCATGTACATATGTACCCATGTACATATGTA,–,binds,no binding,no binding
